Test results reported in paper PMC5985169, “Somatostatin Decorated Quantum Dots for Targeting of Somatostatin Receptors” (Iranian Journal of Pharmaceutical Research : IJPR, 2018).

Assay: HPLC analysis of SST before and after thiolation (elution time related to hydrophilicity)
Format: physicochemical
Settings: chromatographic, C18 reversed-phase analytical column, linear gradient 26% to 39% acetonitrile in water with 0.1% TFA, 1.0 mL/min, detection at 274 nm
Method: Then, thiolated-SST labeled with (1.5 eq) eosin-5-maleimide. Eosin-5-maleimide solution was mixed with thiolated-SST, the reactants were stirred at 600rpm for 30 min. The products were purified by running in Sephadex G-25 mini-column, and identified by thin layer chromatography. HPLC analysis was performed for SST using a linear gradient from 26% to 39% acetonitrile in water, with 0.1% TFA as mobile phase at a flow rate of 1.0 mL/min using a C18-reversed phase analytical column.
The thiolation of SST was investigated using HPLC. […] The single peak eluted at about 19 min corresponded to SST. Thiolated-SST eluted at 18.6 min. The signal consists of multiple neighbouring peaks, these neighbouring peaks appeared between 20.5 and 23 min (Figure 7) and could be related to SST in isomerized form. Neither thiolated-SST nor SST degradation products were detected. Thiolated-SST eluted earlier than SST which is related to the increase in hydrophilicity.
Figure 7 HPLC chromatographs of SST reacted with Traut´s reagent. Signals were detected at 274 nm. Single peak eluted at about 19 min corresponded to SST. Thiolated-SST eluted at 18.6 min.

In the case of Somatostatin acetate [SST], the “HPLC elution time (earlier elution related to increase in hydrophilicity)” value is reported as “about 19 min”.
In the case of “Thiolated-SST: SST thiolated using Traut's reagent”, the “HPLC elution time (earlier elution related to increase in hydrophilicity)” value is reported as 18.6 min.
